Measured values: the Human Domainome abundance scans (Beltran et al. 2025)
± gives the uncertainty stated by the source.

B1: Receptor-interacting serine/threonine-protein kinase 2, residues 438 to 518; numbered along this chain, O43353 (parent)
chain: QWIQSKREDIVNQMTEACLNQSLDALLSRDLIMKEDYELVSTKPTRTSKVRQLLDTTDIQGEEFAKVIVQKLKDNKQMGLQ

Variants of: B1
Test: abundance fitness (aPCA) (normalised: wild type 0, dead -1); higher = more abundant; growth selection in yeast, the domain comes from the species named
Details: Homo sapiens

N20G and N20Q are within error of each other in abundance fitness: -0.159 ± 0.072 for the first, -0.091 ± 0.42 for the second.

First: N20E
Second: N20S
The abundance fitness of the first is lower: -0.571 ± 0.36 for the first, -0.043 ± 0.11 for the second.

N20Y and N20R are within error of each other in abundance fitness: 0.112 ± 0.2 for the first, -0.106 ± 0.098 for the second.

N20V and N20H are within error of each other in abundance fitness: -0.274 ± 0.11 for the first, 0.119 ± 0.38 for the second.

First: N20P
Second: N20A
The abundance fitness of the first is lower: -0.829 ± 0.24 for the first, -0.048 ± 0.21 for the second.

N20F and N20L are within error of each other in abundance fitness: 0.023 ± 0.37 for the first, -0.102 ± 0.1 for the second.

First: N20K
Second: N20C
The abundance fitness of the first is higher: 0.117 ± 0.22 for the first, -0.564 ± 0.16 for the second.

Compared with N20T, N20W is higher in abundance fitness: -0.29 ± 0.17 for the first, 0.075 ± 0.11 for the second.

First: L19T
Second: L19W
The abundance fitness of the first is higher: -0.112 ± 0.3 for the first, -1 ± 0.39 for the second.

L19N and L19V are within error of each other in abundance fitness: -0.454 ± 0.34 for the first, -0.25 ± 0.097 for the second.

L19Y and L19Q are within error of each other in abundance fitness: -0.607 ± 0.24 for the first, -0.351 ± 0.14 for the second.

Going from L19M to L19K, the abundance fitness falls from -0.306 ± 0.12 to -0.884 ± 0.34.

Going from L19I to L19G, the abundance fitness falls from 0.024 ± 0.18 to -0.502 ± 0.088.

Going from L19A to L19S, the abundance fitness falls from -0.447 ± 0.1 to -0.792 ± 0.16.

Going from L19F to L19P, the abundance fitness rises from -0.833 ± 0.27 to -0.3 ± 0.16.

First: A25W
Second: A25T
The abundance fitness of the first is lower: -0.969 ± 0.17 for the first, -0.174 ± 0.075 for the second.

A25I and A25H are within error of each other in abundance fitness: -0.339 ± 0.14 for the first, -0.225 ± 0.16 for the second.

Going from A25R to A25V, the abundance fitness rises from -0.592 ± 0.063 to -0.133 ± 0.092.

A25F and A25D are within error of each other in abundance fitness: -0.052 ± 0.16 for the first, -0.088 ± 0.1 for the second.

A25N and A25S are within error of each other in abundance fitness: -0.343 ± 0.062 for the first, -0.233 ± 0.057 for the second.

First: A25G
Second: A25L
The abundance fitness of the first is lower: -0.451 ± 0.067 for the first, -0.303 ± 0.063 for the second.

Compared with A25P, A25E is higher in abundance fitness: -0.737 ± 0.082 for the first, 0.183 ± 0.072 for the second.

Compared with A25Q, A25K is lower in abundance fitness: -0.43 ± 0.096 for the first, -0.732 ± 0.15 for the second.

First: C18Q
Second: C18T
The abundance fitness of the first is lower: -0.316 ± 0.11 for the first, 0.158 ± 0.084 for the second.

First: C18P
Second: C18R
The abundance fitness of the first is higher: -0.299 ± 0.074 for the first, -0.559 ± 0.071 for the second.

Going from C18N to C18V, the abundance fitness rises from -0.288 ± 0.16 to -0.004 ± 0.079.

Compared with C18Y, C18S is higher in abundance fitness: -0.795 ± 0.22 for the first, -0.24 ± 0.061 for the second.

First: Q21G
Second: Q21W
The abundance fitness of the first is higher: -0.432 ± 0.064 for the first, -1.07 ± 0.2 for the second.

Compared with Q21N, Q21I is lower in abundance fitness: -0.357 ± 0.2 for the first, -0.788 ± 0.1 for the second.

First: Q21F
Second: Q21E
The abundance fitness of the first is lower: -0.776 ± 0.28 for the first, -0.096 ± 0.1 for the second.

Compared with Q21S, Q21L is lower in abundance fitness: -0.141 ± 0.062 for the first, -0.319 ± 0.073 for the second.

Compared with Q21M, Q21Y is higher in abundance fitness: -0.736 ± 0.19 for the first, -0.313 ± 0.22 for the second.

Going from Q21D to Q21C, the abundance fitness falls from 0.183 ± 0.11 to -0.475 ± 0.12.

First: Q21P
Second: Q21K
The abundance fitness of the first is lower: -0.793 ± 0.1 for the first, -0.338 ± 0.18 for the second.

Going from Q21V to Q21A, the abundance fitness rises from -0.382 ± 0.085 to 0.089 ± 0.12.

Q21T and Q21R are within error of each other in abundance fitness: -0.344 ± 0.08 for the first, -0.286 ± 0.051 for the second.

Going from Q21H to L27Y, the abundance fitness rises from -0.562 ± 0.13 to -0.069 ± 0.13.

L27T and L27P are within error of each other in abundance fitness: -0.355 ± 0.12 for the first, -0.328 ± 0.07 for the second.

L27F and L27K are within error of each other in abundance fitness: -0.353 ± 0.19 for the first, -0.041 ± 0.13 for the second.

First: L27G
Second: L27A
The abundance fitness of the first is lower: -0.609 ± 0.071 for the first, -0.251 ± 0.088 for the second.

L27D and L27H are within error of each other in abundance fitness: -0.198 ± 0.13 for the first, -0.284 ± 0.18 for the second.

L27M and L27Q are within error of each other in abundance fitness: 0.128 ± 0.24 for the first, -0.293 ± 0.22 for the second.

Going from L27N to L27V, the abundance fitness rises from -0.395 ± 0.17 to -0.067 ± 0.051.

Compared with L27S, L27C is lower in abundance fitness: -0.104 ± 0.075 for the first, -0.668 ± 0.16 for the second.

First: L27R
Second: S28P
The abundance fitness of the first is higher: -0.157 ± 0.068 for the first, -0.847 ± 0.18 for the second.

S28T and S28Y are within error of each other in abundance fitness: -0.165 ± 0.12 for the first, -0.26 ± 0.1 for the second.

First: S28I
Second: S28E
The abundance fitness of the first is lower: -0.475 ± 0.2 for the first, 0.03 ± 0.14 for the second.

Compared with S28G, S28L is higher in abundance fitness: -0.363 ± 0.064 for the first, -0.204 ± 0.065 for the second.

S28F and S28D are within error of each other in abundance fitness: -0.665 ± 0.29 for the first, -0.36 ± 0.16 for the second.

Going from S28Q to S28V, the abundance fitness falls from 0.041 ± 0.11 to -0.175 ± 0.089.

S28C and S28W are within error of each other in abundance fitness: -0.283 ± 0.13 for the first, -0.527 ± 0.14 for the second.

Going from S28K to S28M, the abundance fitness falls from 0.095 ± 0.093 to -0.259 ± 0.11.

S28R and S28H are within error of each other in abundance fitness: -0.082 ± 0.062 for the first, -0.25 ± 0.12 for the second.

Going from S22C to S22F, the abundance fitness falls from -0.017 ± 0.13 to -0.945 ± 0.39.

S22N and S22G are within error of each other in abundance fitness: -0.71 ± 0.46 for the first, -0.5 ± 0.075 for the second.

Going from S22D to S22Y, the abundance fitness falls from -0.386 ± 0.15 to -0.911 ± 0.25.

First: S22V
Second: S22P
The abundance fitness of the first is higher: 0.1 ± 0.069 for the first, -0.621 ± 0.059 for the second.

S22R and S22Q are within error of each other in abundance fitness: -1.05 ± 0.13 for the first, -0.796 ± 0.15 for the second.

S22A and S22I are within error of each other in abundance fitness: 0.066 ± 0.051 for the first, 0.565 ± 0.49 for the second.

First: S22L
Second: D24M
The abundance fitness of the first is higher: -0.057 ± 0.072 for the first, -0.719 ± 0.33 for the second.

Compared with D24H, D24A is higher in abundance fitness: -0.574 ± 0.16 for the first, -0.106 ± 0.084 for the second.

D24R and D24E are within error of each other in abundance fitness: -0.169 ± 0.057 for the first, 0.034 ± 0.33 for the second.

Compared with D24P, D24Y is higher in abundance fitness: -0.68 ± 0.099 for the first, -0.221 ± 0.22 for the second.

Compared with D24G, D24K is higher in abundance fitness: -0.692 ± 0.1 for the first, -0.328 ± 0.19 for the second.

Going from D24F to D24T, the abundance fitness rises from -0.779 ± 0.22 to -0.28 ± 0.045.

First: D24V
Second: D24W
The abundance fitness of the first is higher: -0.434 ± 0.1 for the first, -0.881 ± 0.21 for the second.

Going from D24S to D24L, the abundance fitness falls from -0.19 ± 0.077 to -0.569 ± 0.11.

D24C and L23E are within error of each other in abundance fitness: -0.337 ± 0.15 for the first, -0.445 ± 0.21 for the second.

L23N and L23A are within error of each other in abundance fitness: -0.282 ± 0.23 for the first, -0.397 ± 0.11 for the second.

L23Q and L23I are within error of each other in abundance fitness: -0.424 ± 0.14 for the first, -0.918 ± 0.49 for the second.

L23V and L23R are within error of each other in abundance fitness: -0.509 ± 0.11 for the first, -0.695 ± 0.079 for the second.

First: L23H
Second: L23W
The abundance fitness of the first is higher: -0.174 ± 0.13 for the first, -0.911 ± 0.3 for the second.

Going from L23F to L23M, the abundance fitness rises from -0.764 ± 0.24 to -0.274 ± 0.2.

L23K and L23G are within error of each other in abundance fitness: -0.559 ± 0.3 for the first, -0.67 ± 0.11 for the second.

First: L23S
Second: L23T
The abundance fitness of the first is lower: -0.616 ± 0.12 for the first, -0.368 ± 0.12 for the second.

L26V and L26C are within error of each other in abundance fitness: -0.649 ± 0.069 for the first, -0.618 ± 0.11 for the second.

Going from L26E to L26T, the abundance fitness falls from -0.364 ± 0.11 to -0.657 ± 0.13.

Going from L26S to L26G, the abundance fitness falls from -0.419 ± 0.069 to -0.572 ± 0.081.

Going from L26F to L26R, the abundance fitness rises from -1.03 ± 0.25 to -0.425 ± 0.05.

First: L26P
Second: L26W
The abundance fitness of the first is higher: -0.374 ± 0.068 for the first, -1.02 ± 0.17 for the second.

Going from L26K to L26Y, the abundance fitness falls from -0.374 ± 0.15 to -0.879 ± 0.3.

Compared with L26H, L26D is lower in abundance fitness: -0.289 ± 0.18 for the first, -0.833 ± 0.34 for the second.

First: L26M
Second: L26A
The abundance fitness of the first is lower: -0.662 ± 0.13 for the first, -0.313 ± 0.059 for the second.

L26Q showed an abundance fitness of -0.31 ± 0.061.
